Our source for the Kd values is publication PMC5465077.

The experiment has as its target Her2 on SKBR3 cells (human (endogenous in SKBR3)) (UniProt P04626). The experiment is described as follows: flow cytometry on cells; 200,000 SKBR3 cells per sample incubated on ice for 60 min with serial dilutions of antibody or ADC in FACS buffer (DPBS, 1% BSA); detected with Alexa 647 goat anti-human IgG; mean fluorescence intensities fitted with a one-site specific binding equation.

Take “Trastuzumab^CF MMAF (AB4285) LC-S7 (antibody)”: the Kd (usually the concentration at which binding is half-saturated) turned out to be 7.6 nM.
